For two proteins, Km, Vmax and kcat results are on record in article PMC9602339, “Diaminopimelic Acid Metabolism by Pseudomonadota in the Ocean” (Microbiology Spectrum, 2022).

Substrate in series [1]: NC(CCCC(N)C(=O)O)C(=O)O
Put plainly: initial rates, Lys production by amino acid analyzer; nonlinear Michaelis-Menten fit. The series is classed as biochemical, Thalassospira sp. A40-3. The following applies: 0 to 12 mM DAP, 200 mM Tris-HCl pH 8.0, PLP (100 mM [sic]), 25°C, DAP stereoisomer not given. The source says:
initial rates, Lys production by amino acid analyzer; nonlinear Michaelis-Menten fit on LysA (DAP decarboxylase) from strain A40-3

Substrate in series [2]: NC(CCCC(N)C(=O)O)C(=O)O
Described as above. The series is classed as biochemical, Halomonas sp. A40-4. The following applies: 0 to 12 mM DAP, 200 mM Tris-HCl pH 8.0, PLP (100 mM [sic]), 25°C, DAP stereoisomer not given. The source says:
initial rates, Lys production by amino acid analyzer; nonlinear Michaelis-Menten fit on LysA (DAP decarboxylase) from strain A40-4

B1: LysA (DAP decarboxylase) from strain A40-3 (Thalassospira sp. A40-3) (protein)
chain: MNHFEYINSELYAEGVSIREMADKVGTPFFCYSTATLERHYKVYADAFDGLDATVCFAVKANSNQAVLKTLANLGAGADVVSVGEMRRALRAGMPPAKIIFSGVGKADAEMREALDADIAQINVESIPELVELNRVAIDMGKKARIALRVNPHVDAKTHEKIATGKAENKFGIDWTRAIEVYREAAAMDGIEVTGIAMHIGSQLTDLAPFREAFTRLAGLVEQLRSEGIDIRNLDLGGGLGIAYQGETPPLPDAYGQMVRETVGHLGCHITLEPGRLIAGNAGIMVSRVMYIKDGEAKRFVILDAAMNDLIRPTLYGAYHEIIPVDEQTDGDKQVKVDVVGPVCETGDTFGKDRDLPDDLKAGDLVAVMSAGAYGAVMSSTYNTRALTPEVLVKGNNFAIVRPRQEIDDLINMDLVPSWLSNA
notes: full length 423 residues
Turning to B1, in series [1], the Km worked out at 1890 ± 340 µM, the Vmax worked out at 37.7 µmol/min/mg and the kcat is 26.9 ± 2.42 s⁻¹.

B2: LysA (DAP decarboxylase) from strain A40-4 (Halomonas sp. A40-4) (protein)
chain: MDHFNDRDGLLFAEDVPLDRIAETYGTPCYVYSKATLTRHFRAYTEALGGHPHLICYAVKANSNLAVLGLLAKLGAGFDIVSVGELERVLKAGGDPDKVVFSGVAKQPHEMARALEVGIKCFNVESRPELERLNAVAGELGKMAPVSLRVNPDVDAGTHPYISTGLKDNKFGIPVDDALTVYELAASLPNLQVKGLDCHIGSQLTETAPFLDALERLLVLMERLRERGIEIDHLDLGGGLGVPYRDETPPHPFDYASQLLSRLSRWEGGEQLTLLFEPGRSIAANAGIMLTRVEFLKPGETKNFAIVDAAMNDLIRPALYQAWQAIVPVDTRSARETSIYDVVGPVCETGDFLGQERELAIAAGDLLAVRSAGAYGFVMASNYNSRPRPAEVMVDGERCHLVRARETLESLWSGEALLPEGGC
notes: lysA complementation fragment 1,272 bp
With B2, in series [2], the Michaelis constant (Km) was determined as 720 ± 140 µM, the Vmax worked out at 58.3 µmol/min/mg and the turnover number (kcat) came to 41.6 ± 0.88 s⁻¹.

Broadly, the Km is the substrate concentration at which the rate is half of its maximum. As usually defined, the Vmax is the top rate of the reaction or transport when substrate is in excess. In general, kcat refers to the number of substrate molecules converted per active site and unit of time at saturation.
